Test results published in paper PMC2780419.

Molecular target: GST-gc-p300/CH1 fusion protein (CH1 domain of grass carp p300) (grass carp (Ctenopharyngodon idella))

Row | Substance | gcHIF-1-mediated transactivation of HRE-luciferase activity in CHO cells, change in the presence of gcCITED3a | gcHIF-1-mediated transactivation of HRE-luciferase activity in CHO cells, change in the presence of gcCITED3b
1 | gcCITED3a (grass carp CITED3a), in vitro translated (natural protein) | -40% | 
2 | gcCITED3b (grass carp CITED3b), in vitro translated (natural protein) |  | -40%
